Blank lines part the entries; values can stand above or below the binder they belong to.
Experiments:
[1] = biological target: T1, Recombinant Human DLL4 (delta-like protein 4) (human, UniProt Q9NR61 27-524); assay: ECL (MSD) binding assay, DLL4 immobilised, Fab at 10 nM
T1 construct: also called rHuman DLL4; Delta-like 4

[2] = biological target: T2, Recombinant Human DLL4 (R&D Systems Cat#1506-D4/CF) (human, UniProt Q9NR61 27-524); assay: ELISA on coated DLL4, 100 nM Fab
T2 construct: Bought recombinant human DLL4; also called delta-like protein 4; rHuman DLL4

[3] = biological target: T2, Recombinant Human DLL4 (R&D Systems …); assay: ECL (MSD) binding assay, immobilised DLL4, 10 nM Fab;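 note: fab binding read as electrochemiluminescence via a TAG-labelled detection antibody, 1 h incubations at 20 °C, antigen signal compared with each well's blank, ratio of at least 4 scored as binder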
[4] = biological target: T3, Recombinant Human DLL4 (delta-like protein 4) (human, UniProt Q9NR61 27-524); assay: ELISA on coated DLL4, Fab at 3.125 nM (2-fold serial dilution)
T3 construct: also called rHuman DLL4; Delta-like 4

[5] = biological target: T3, Recombinant Human DLL4 (delta-like …); assay: ELISA on coated DLL4, Fab at 50 nM (2-fold serial dilution)
[6] = biological target: T3, Recombinant Human DLL4 (delta-like …); assay: ELISA on coated DLL4, Fab at 25 nM (2-fold serial dilution)
[7] = biological target: T3, Recombinant Human DLL4 (delta-like …); assay: ELISA on coated DLL4, Fab at 12.5 nM (2-fold serial dilution)
[8] = biological target: T3, Recombinant Human DLL4 (delta-like …); assay: ELISA on coated DLL4, Fab at 6.25 nM (2-fold serial dilution)
[9] = biological target: T3, Recombinant Human DLL4 (delta-like …); assay: ELISA on coated DLL4, Fab at 100 nM (2-fold serial dilution)

Signal [10 nM Fab] [1]: 13200
B1: Fab VH1-46_IGHD6-6*01_IGHJ1*01 S102A/S103P/S104F/H111F & L6_IGKJ1*01 A55T (Fab, V domains shown)
VH: QVQLVQSGAEVKKPGASVKVSCKASGYTFTSYYMHWVRQAPGQGLEWMGIINPSGGSTSYAQKFQGRVTMTRDTSTSTVYMELSSLRSEDTAVYYCAREEYAPFSAEYFQFWGQGTLVTVSS
VL: EIVLTQSPATLSLSPGERATLSCRASQSVSSYLAWYQQKPGQAPRLLIYDASNRTTGIPARFSGSGSGTDFTLTISSLEPEDFAVYYCQQRSNWPPWTFGQGTKVEIKR
notes: also called APFF & L6_IGKJ1*01 A55T

Signal [10 nM Fab] [1]: 7260
B2: Fab VH1-46_IGHD6-6*01_IGHJ1*01 S102A/S103P/S104F/H111F & L6_IGKJ1*01 T56A (Fab, V domains shown)
VH: QVQLVQSGAEVKKPGASVKVSCKASGYTFTSYYMHWVRQAPGQGLEWMGIINPSGGSTSYAQKFQGRVTMTRDTSTSTVYMELSSLRSEDTAVYYCAREEYAPFSAEYFQFWGQGTLVTVSS
VL: EIVLTQSPATLSLSPGERATLSCRASQSVSSYLAWYQQKPGQAPRLLIYDASNRAAGIPARFSGSGSGTDFTLTISSLEPEDFAVYYCQQRSNWPPWTFGQGTKVEIKR
notes: also called APFF & L6_IGKJ1*01 T56A

Signal [10 nM Fab] [1]: 4230
B3: Fab VH1-46_IGHD6-6*01_IGHJ1*01 S102A/S103P/S104F/H111F & L6_IGKJ1*01 D50A (Fab, V domains shown)
VH: QVQLVQSGAEVKKPGASVKVSCKASGYTFTSYYMHWVRQAPGQGLEWMGIINPSGGSTSYAQKFQGRVTMTRDTSTSTVYMELSSLRSEDTAVYYCAREEYAPFSAEYFQFWGQGTLVTVSS
VL: EIVLTQSPATLSLSPGERATLSCRASQSVSSYLAWYQQKPGQAPRLLIYAASNRATGIPARFSGSGSGTDFTLTISSLEPEDFAVYYCQQRSNWPPWTFGQGTKVEIKR
notes: also called APFF & L6_IGKJ1*01 D50A

Signal [10 nM Fab] [1]: 11600
B4: Fab VH1-46_IGHD6-6*01_IGHJ1*01 S102A/S103P/S104F/H111F & L6_IGKJ1*01 R54A (Fab, V domains shown)
VH: QVQLVQSGAEVKKPGASVKVSCKASGYTFTSYYMHWVRQAPGQGLEWMGIINPSGGSTSYAQKFQGRVTMTRDTSTSTVYMELSSLRSEDTAVYYCAREEYAPFSAEYFQFWGQGTLVTVSS
VL: EIVLTQSPATLSLSPGERATLSCRASQSVSSYLAWYQQKPGQAPRLLIYDASNAATGIPARFSGSGSGTDFTLTISSLEPEDFAVYYCQQRSNWPPWTFGQGTKVEIKR
notes: also called APFF & L6_IGKJ1*01 R54A

Signal [10 nM Fab] [1]: 14200
B5: Fab VH1-46_IGHD6-6*01_IGHJ1*01 S102A/S103P/S104F/H111F & L6_IGKJ1*01 N53A (Fab, V domains shown)
VH: QVQLVQSGAEVKKPGASVKVSCKASGYTFTSYYMHWVRQAPGQGLEWMGIINPSGGSTSYAQKFQGRVTMTRDTSTSTVYMELSSLRSEDTAVYYCAREEYAPFSAEYFQFWGQGTLVTVSS
VL: EIVLTQSPATLSLSPGERATLSCRASQSVSSYLAWYQQKPGQAPRLLIYDASARATGIPARFSGSGSGTDFTLTISSLEPEDFAVYYCQQRSNWPPWTFGQGTKVEIKR
notes: also called APFF & L6_IGKJ1*01 N53A

Signal [10 nM Fab] [1]: 19300
B6: Fab VH1-46_IGHD6-6*01_IGHJ1*01 S102A/S103P/S104F/H111F & L6_IGKJ1*01 S52A (Fab, V domains shown)
VH: QVQLVQSGAEVKKPGASVKVSCKASGYTFTSYYMHWVRQAPGQGLEWMGIINPSGGSTSYAQKFQGRVTMTRDTSTSTVYMELSSLRSEDTAVYYCAREEYAPFSAEYFQFWGQGTLVTVSS
VL: EIVLTQSPATLSLSPGERATLSCRASQSVSSYLAWYQQKPGQAPRLLIYDAANRATGIPARFSGSGSGTDFTLTISSLEPEDFAVYYCQQRSNWPPWTFGQGTKVEIKR
notes: also called APFF & L6_IGKJ1*01 S52A

ELISA Signal [100 nM Fab] [2]: 0.02 | ECL Signal [10 nM Fab] [3]: 61700
B7: Fab VH5-51_IGHD5-18*01>3_IGHJ4*01 G100K/G104T (H:KT) & V3-4_IGLJ1*01 S96M (Fab, V domains shown)
VH: EVQLVQSGAEVKKPGESLKISCKGSGYSFTSYWIGWVRQMPGKGLEWMGIIYPGDSDTRYSPSFQGQVTISADKSISTAYLQWSSLKASDTAMYYCARRKYSYTYDYFDYWGQGTLVTVSS
VL: QTVVTQEPSFSVSPGGTVTLTCGLSSGSVSTSYYPSWYQQTPGQAPRTLIYSTNTRSSGVPDRFSGSILGNKAALTITGAQADDESDYYCVLYMGMGISYVFGTGTKVTVL
notes: Fab format: CH1 with His6 and Flag tags, and lambda CL, from the vectors; also called G100K/G104T & S96M

ELISA signal [4]: 0.216 | ELISA signal [5]: 0.194 | ELISA signal [6]: 0.227 | ELISA signal [7]: 0.215 | ELISA signal [8]: 0.207 | ELISA signal [9]: 0.209
B8: Fab VH5-51_IGHD5-18*01>3_IGHJ4*01 G100K/G104T (KT) & V3-4_IGLJ1*01 S52G (Fab, V domains shown)
VH: EVQLVQSGAEVKKPGESLKISCKGSGYSFTSYWIGWVRQMPGKGLEWMGIIYPGDSDTRYSPSFQGQVTISADKSISTAYLQWSSLKASDTAMYYCARRKYSYTYDYFDYWGQGTLVTVSS
VL: QTVVTQEPSFSVSPGGTVTLTCGLSSGSVSTSYYPSWYQQTPGQAPRTLIYGTNTRSSGVPDRFSGSILGNKAALTITGAQADDESDYYCVLYMGSGISYVFGTGTKVTVL
notes: Fab; also called H:KT & L:S52G

From US20120316071A1 (published 2012)
